Test results from US20050153894A1, “p21 peptides” (Cyclacel Limited, priority 1999, published 2005).
One block for each substance: values may come before it. Numbered stars: 1 amine (or outer) side, 2 acyl side, 3 side chain; on linkers, the order of the positions; unused ones are H or OH. Square brackets hold non-standard residues; d marks the D form. Dhp = Dehydrophenylalanine, O=C(/C(=C/c1ccccc1)N[*:1])[*:2]; Phe(4-F) = N[C@@H](Cc1ccc(F)cc1)C(=O)O; hPhe = N[C@@H](CCc1ccccc1)C(=O)O; Tic = O=C(O)[C@@H]1Cc2ccccc2CN1; Cha = N[C@@H](CC1CCCCC1)C(=O)O; Phg = N[C@H](C(=O)O)c1ccccc1; Nle = CCCC[C@H](N)C(=O)O; Nva = CCC[C@H](N)C(=O)O; Abu = CC[C@H](N)C(=O)O; Pse = Phenylserine

Experiments:
CDK2/cyclin A = CDK2/cyclin A (Homo sapiens, UniProt P20248); test: CDK2/cyclin A kinase assay, substrate pRb(773-928); assay type: biochemical; conditions: pRb substrate, [ATP] = 100 μM
Description: Reactions were stopped on ice, followed by filtration through p81 filterplates (Whatman Polyfiltronics, Kent, UK).

Cyclin A = Cyclin A (Homo sapiens, UniProt P20248); test: Cyclin A binding assay, immobilised biotinyl-Ahx-[…]NH2
Chain of Cyclin A (P20248 whole entry): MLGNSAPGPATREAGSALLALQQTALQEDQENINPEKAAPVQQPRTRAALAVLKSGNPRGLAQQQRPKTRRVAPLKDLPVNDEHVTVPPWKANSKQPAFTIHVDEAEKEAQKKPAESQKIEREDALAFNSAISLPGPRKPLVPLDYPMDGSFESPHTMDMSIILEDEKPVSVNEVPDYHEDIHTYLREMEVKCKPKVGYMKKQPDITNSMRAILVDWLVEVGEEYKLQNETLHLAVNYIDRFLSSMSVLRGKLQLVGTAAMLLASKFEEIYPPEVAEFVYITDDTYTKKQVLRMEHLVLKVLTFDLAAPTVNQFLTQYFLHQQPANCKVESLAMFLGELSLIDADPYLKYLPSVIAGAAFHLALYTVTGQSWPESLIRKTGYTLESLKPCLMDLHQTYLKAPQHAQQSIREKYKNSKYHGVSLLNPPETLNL
Protocol: This was added to each well (100 μL). The plate was incubated for 1 h at room temperature with constant shaking. The plate was washed once quickly with TBS/BSA buffer (200 μL), followed by three more washes with TBS/BSA buffer (200 μL) for 5 min each. Serial dilutions of test peptides were prepared in a new plate (50 μL in each well). Cyclin A was diluted to 5 μg/50 μL with TBS/BSA buffer and this was then added to each well (50 μL). The solutions were mixed thoroughly with a pipette (5-6 times), before being incubated for 30 min at room temperature. This reaction mixture was then transferred to the biotinylated peptide: streptavidin-coated plate and incubated for 1 h at room temperature with constant shaking. The plate was washed once quickly with TBS/BSA buffer (200 μL), followed by three more washes with TBS/BSA buffer (200 μL) for 5 min each. The cyclin A antibody (Santa Cruz polyclonal) solution was diluted 1:200 with TBS/BSA buffer and this was then added to each well of the plate (100 μL. The plate was incubated for 1 h at room temperature with constant shaking. The plate was washed once quickly with TBS/BSA buffer (200 μl), followed by three more washes with TBS/BSA buffer (200 μL) for 5 min each. The anti-rabbit secondary antibody (goat anti-rabbit IgG peroxidase conjugate) was diluted 1:10,000 with TBS/BSA and this was then added to each well of the plate (100 μL). The plate was incubated for 1 h at room temperature with constant shaking. The plate was washed once quickly with TBS/BSA buffer (200 μL), followed by three more washes with TBS/BSA buffer (200 μL) for 5 min each. To each well was added the TMB-ELISA reagent (Pierce 1-Step™ Turbo TMB-ELISA; 100 μL) and the plate incubated for 1 min with constant shaking. The reaction was then quenched by the addition of 2 M aqueous H2SO4 (100 μL, each well). The UV absorbance of the each solution was measured spectrophotometrically at 450 nm. IC50 values were calculated from dose-response curves.

[1] = His152 substitutions, relative to H-His-Ala-Lys-Arg-Arg-Leu-Ile-Phe-NH2 (=1)
[2] = Lys154 substitutions, relative to H-His-Ala-Lys-Arg-Arg-Leu-Ile-Phe-NH2 (=1)
[3] = Ala153 substitutions, relative to H-His-Ala-Lys-Arg-Arg-Leu-Ile-Phe-NH2 (=1)
[4] = Ile158 substitutions, relative to H-His-Ala-Lys-Arg-Arg-Leu-Ile-Phe-NH2 (=1)
[5] = Phe159 substitutions, relative to H-His-Ala-Lys-Arg-Arg-Leu-Ile-Phe-NH2 (=1)
[6] = Arg155 substitutions, relative to H-His-Ala-Lys-Arg-Arg-Leu-Ile-Phe-NH2 (=1)
[7] = relative to H-His-Ala-Lys-Arg-Arg-Leu-Ile-Phe-NH2 (SEQ ID No. 36) = 1, CDK2/cyclin A kinase assay
[8] = relative to SEQ ID No. 36 = 1, competitive cyclin A binding, immobilised biotinyl-Ahx-His-Ala-Lys-Arg-Arg-Leu-Ile-Phe-NH2
[9] = Leu157 substitutions, relative to H-His-Ala-Lys-Arg-Arg-Leu-Ile-Phe-NH2 (=1)

Relative activity Kinase Inhibition (CDK2/cyclin A; [1]): 2 | Relative activity Cyclin A Binding (Cyclin A; [1]): 2
Substance: H-Hse-Ala-Lys-Arg-Arg-Leu-Ile Phe-NH2 (XAKRRLIF; N-terminal Hse, C-terminal amide)

Relative activity Kinase Inhibition (CDK2/cyclin A; [2]): 5.7 | Relative activity Cyclin A Binding (Cyclin A; [2]): 1.5
Substance: H-His-Ala-Arg-Arg-Arg-Leu-Ile Phe-NH2 (H-HARRRLIF-NH2)

Relative activity Kinase Inhibition (CDK2/cyclin A; [3]): 0.1 | Relative activity Cyclin A Binding (Cyclin A; [3]): 0.1
Substance: H-His-Gly-Lys-Arg-Arg-Leu-Ile Phe-NH2 (H-HGKRRLIF-NH2)

Relative activity Kinase Inhibition (CDK2/cyclin A; [4]): 0.3 | Relative activity Cyclin A Binding (Cyclin A; [4]): 0.5
Substance: H-His-Ala-Lys-Arg-Arg-Leu-Cha-Phe-NH2 (H-HAKRRL[Cha]F-NH2; SMILES CC(C)C[C@H](NC(=O)[C@H](CCCNC(=N)N)NC(=O)[C@H](CCCNC(=N)N)NC(=O)[C@H](CCCCN)NC(=O)[C@H](C)NC(=O)[C@@H](N)Cc1c[nH]cn1)C(=O)N[C@@H](CC1CCCCC1)C(=O)N[C@@H](Cc1ccccc1)C(N)=O)

Substance: H-His-Ala-Lys-Arg-Arg-Leu-Ile-pFPhe-NH2 (H-HAKRRLI[Phe(4-F)]-NH2; SMILES CC[C@H](C)[C@H](NC(=O)[C@H](CC(C)C)NC(=O)[C@H](CCCNC(=N)N)NC(=O)[C@H](CCCNC(=N)N)NC(=O)[C@H](CCCCN)NC(=O)[C@H](C)NC(=O)[C@@H](N)Cc1c[nH]cn1)C(=O)N[C@@H](Cc1ccc(F)cc1)C(N)=O)
Relative activity Kinase Inhibition (CDK2/cyclin A; [5]): 1 | Relative activity Cyclin A Binding (Cyclin A; [5]): 5

Relative activity Kinase Inhibition (CDK2/cyclin A; [6]): <0.1 | Relative activity Cyclin A Binding (Cyclin A; [6]): <0.1
Substance: H-His-Ala-Lys-Gln-Arg-Leu-Ile Phe-NH2 (H-HAKQRLIF-NH2)

Relative activity Kinase Inhibition (CDK2/cyclin A; [5]): 0.3 | Relative activity Cyclin A Binding (Cyclin A; [5]): <0.1
Substance: H-His-Ala-Lys-Arg-Arg-Leu-Ile-Tic-NH2 (H-HAKRRLI[Tic]-NH2; SMILES CC[C@H](C)[C@H](NC(=O)[C@H](CC(C)C)NC(=O)[C@H](CCCNC(=N)N)NC(=O)[C@H](CCCNC(=N)N)NC(=O)[C@H](CCCCN)NC(=O)[C@H](C)NC(=O)[C@@H](N)Cc1c[nH]cn1)C(=O)N1Cc2ccccc2C[C@H]1C(N)=O)

Relative activity Kinase Inhibition (CDK2/cyclin A; [4]): 0.2 | Relative activity Cyclin A Binding (Cyclin A; [4]): 0.6
Substance: H-His-Ala-Lys-Arg-Arg-Leu-Nva Phe-NH2 (H-HAKRRL[Nva]F-NH2; SMILES CCC[C@H](NC(=O)[C@H](CC(C)C)NC(=O)[C@H](CCCNC(=N)N)NC(=O)[C@H](CCCNC(=N)N)NC(=O)[C@H](CCCCN)NC(=O)[C@H](C)NC(=O)[C@@H](N)Cc1c[nH]cn1)C(=O)N[C@@H](Cc1ccccc1)C(N)=O)

Relative activity Kinase Inhibition (CDK2/cyclin A; [6]): 0.8 | Relative activity Cyclin A Binding (Cyclin A; [6]): 0.1
Substance: H-His-Ala-Lys-Lys-Arg-Leu-Ile Phe-NH2 (H-HAKKRLIF-NH2)

Relative activity Kinase Inhibition (CDK2/cyclin A; [3]): 5 | Relative activity Cyclin A Binding (Cyclin A; [3]): 1.3
Substance: H-His-Abu-Lys-Arg-Arg-Leu-Ile Phe-NH2 (H-H[Abu]KRRLIF-NH2; SMILES CC[C@H](NC(=O)[C@@H](N)Cc1c[nH]cn1)C(=O)N[C@@H](CCCCN)C(=O)N[C@@H](CCCNC(=N)N)C(=O)N[C@@H](CCCNC(=N)N)C(=O)N[C@@H](CC(C)C)C(=O)N[C@H](C(=O)N[C@@H](Cc1ccccc1)C(N)=O)[C@@H](C)CC)

Relative activity Kinase Inhibition (CDK2/cyclin A; [1]): 2 | Relative activity Cyclin A Binding (Cyclin A; [1]): 0.2
Substance: H-Thi-Ala-Lys-Arg-Arg-Leu-Ile Phe-NH2 (XAKRRLIF; N-terminal Thi, C-terminal amide)

Relative activity Kinase Inhibition (CDK2/cyclin A; [6]): <0.1 | Relative activity Cyclin A Binding (Cyclin A; [6]): <0.1
Substance: H-His-Ala-Lys-Ala-Arg-Leu-Ile Phe-NH2 (H-HAKARLIF-NH2)

Relative activity Kinase Inhibition (CDK2/cyclin A; [6]): <0.1 | Relative activity Cyclin A Binding (Cyclin A; [6]): <0.1
Substance: H-His-Ala-Lys-Nle-Arg-Leu-Ile Phe-NH2 (H-HAKHRLIF-NH2; not fully specified (residue 4); printed as H-His-Ala-Lys-Nle-Arg-Leu-Ile Phe-NH2)

Relative activity Kinase Inhibition (CDK2/cyclin A; [1]): 3 | Relative activity Cyclin A Binding (Cyclin A; [1]): 1
Substance: H-Phe-Ala-Lys-Arg-Arg-Leu.Ile Phe-NH2 (H-FAKRRLIF-NH2)

Relative activity Kinase Inhibition (CDK2/cyclin A; [3]): <0.1 | Relative activity Cyclin A Binding (Cyclin A; [3]): <0.1
Substance: H-His-Nva-Lys-Arg-Arg.Leu-Ile Phe.NH2 (H-H[Nva]KRRLIF-NH2; SMILES CCC[C@H](NC(=O)[C@@H](N)Cc1c[nH]cn1)C(=O)N[C@@H](CCCCN)C(=O)N[C@@H](CCCNC(=N)N)C(=O)N[C@@H](CCCNC(=N)N)C(=O)N[C@@H](CC(C)C)C(=O)N[C@H](C(=O)N[C@@H](Cc1ccccc1)C(N)=O)[C@@H](C)CC)

Relative activity Kinase Inhibition (CDK2/cyclin A; [4]): 0.4 | Relative activity Cyclin A Binding (Cyclin A; [4]): 0.3
Substance: H-His-Ala-Lys-Arg-Arg-Leu-Nle Phe-NH2 (H-HAKRRL[Nle]F-NH2; SMILES CCCC[C@H](NC(=O)[C@H](CC(C)C)NC(=O)[C@H](CCCNC(=N)N)NC(=O)[C@H](CCCNC(=N)N)NC(=O)[C@H](CCCCN)NC(=O)[C@H](C)NC(=O)[C@@H](N)Cc1c[nH]cn1)C(=O)N[C@@H](Cc1ccccc1)C(N)=O)

Relative activity Kinase Inhibition (CDK2/cyclin A; [1]): 5 | Relative activity Cyclin A Binding (Cyclin A; [1]): 0.4
Substance: H-Dab-Ala-Lys-Arg-Arg-Leu-Ile Phe-NH2 (XAKRRLIF; N-terminal Dab, C-terminal amide)

Relative activity Kinase Inhibition (CDK2/cyclin A; [7]): 3.3 | Relative activity Cyclin A Binding (Cyclin A; [8]): 0.2
Substance: 118 (H-HAKRRLI[Dhp]-OH; not fully specified) [compound 118]

Relative activity Kinase Inhibition (CDK2/cyclin A; [7]): <0.1 | Relative activity Cyclin A Binding (Cyclin A; [8]): <0.1
Substance: 112 (H-HSKRRLI[Pse]-OH) [compound 112]

Relative activity Kinase Inhibition (CDK2/cyclin A; [3]): 0.5 | Relative activity Cyclin A Binding (Cyclin A; [3]): 0.2
Substance: H-His-Phe-Lys-Arg-Arg-Leu-Ile Phe-NH2 (H-HFKRRLIF-NH2)

Relative activity Kinase Inhibition (CDK2/cyclin A; [9]): <0.1 | Relative activity Cyclin A Binding (Cyclin A; [9]): <0.1
Substance: H-His-Ala-Lys-Arg-Arg-Nle-Ile Phe-NH2 (H-HAKRR[Nle]IF-NH2; SMILES CCCC[C@H](NC(=O)[C@H](CCCNC(=N)N)NC(=O)[C@H](CCCNC(=N)N)NC(=O)[C@H](CCCCN)NC(=O)[C@H](C)NC(=O)[C@@H](N)Cc1c[nH]cn1)C(=O)N[C@H](C(=O)N[C@@H](Cc1ccccc1)C(N)=O)[C@@H](C)CC)

Relative activity Kinase Inhibition (CDK2/cyclin A; [9]): <0.1 | Relative activity Cyclin A Binding (Cyclin A; [9]): <0.1
Substance: H-His-Ala-Lys-Arg-Arg-Cha-Ile Phe-NH2 (H-HAKRR[Cha]IF-NH2; SMILES CC[C@H](C)[C@H](NC(=O)[C@H](CC1CCCCC1)NC(=O)[C@H](CCCNC(=N)N)NC(=O)[C@H](CCCNC(=N)N)NC(=O)[C@H](CCCCN)NC(=O)[C@H](C)NC(=O)[C@@H](N)Cc1c[nH]cn1)C(=O)N[C@@H](Cc1ccccc1)C(N)=O)

Relative activity Kinase Inhibition (CDK2/cyclin A; [5]): <0.1 | Relative activity Cyclin A Binding (Cyclin A; [5]): <0.1
Substance: H-His-Ala-Lys-Arg-Arg-Leu-Ile-Hof-NH2 (H-HAKRRLI[hPhe]-NH2; SMILES CC[C@H](C)[C@H](NC(=O)[C@H](CC(C)C)NC(=O)[C@H](CCCNC(=N)N)NC(=O)[C@H](CCCNC(=N)N)NC(=O)[C@H](CCCCN)NC(=O)[C@H](C)NC(=O)[C@@H](N)Cc1c[nH]cn1)C(=O)N[C@@H](CCc1ccccc1)C(N)=O)

Relative activity Kinase Inhibition (CDK2/cyclin A; [3]): <0.1 | Relative activity Cyclin A Binding (Cyclin A; [3]): <0.1
Substance: H-His-Phg-Lys-Arg-Arg-Leu-Ile Phe-NH2 (H-H[Phg]KRRLIF-NH2; not fully specified; printed as H-His-Phg-Lys-Arg-Arg-Leu-Ile Phe-NH2)
